Measurements as given in publication PMC4866688, “Trypanosoma brucei DHFR-TS Revisited: Characterisation of a Bifunctional and Highly Unstable Recombinant Dihydrofolate Reductase-Thymidylate Synthase” (PLoS Neglected Tropical Diseases, 2016).

Molecular target: the molecule itself
Experiment: SEC; Superdex 200 column, Bio-Rad gel filtration standards; purified cleaved enzyme, DHFR activity and absorbance at 280 nm followed

B1: Trypanosoma brucei dihydrofolate reductase-thymidylate synthase, Tsf tag removed with TEV protease (enzyme, UniProt Q27783 1-527, looked up)
chain: MLSLTRILRKKIPVHELAGKISRPPLRPFSVVVASDEKGGIGDGGTIPWEIPEDMQYFRRVTTNLRGKNVKPSPSKRNAVVMGRKTWDSLPPKFRPLSNRLNVVLSRSATKEQLLAGIPDPIKRAEAANDVVAVNGGLEDALRMLVSKEHTSSIETVFCIGGGTIYKQALCAPCVNVLQAIHRTVVRPASNSCSVFFDIPAAGTKTPEGLELVRESITDERVSTGAGGKKYQFEKLVPRNSEEEQYLNLVGRIIDEGCTKCDRTGVGTRSLFGAQMRFSLRNNRLPLLTTKRVFWRGVCEELLWFLRGETNAKLLSDKGIHIWDGNGSRAFLDSRGLTDYDEMDLGPVYGFQWRHFGADYISCKVDSEGKGVDQIANIVKSLIENPDDRRMICTAWNPAALPRMALPPCHMMAQFYVSNGELSCMLYQRSCDMGLGVPFNIASYALLTFLMAKASGLRPGELVHTLGDAHVYSNHVEPCRKQLKRVPRPFPFIVFKQDKEFLEDFQESDIEVIDYSPYPVISMEMAV
notes: bifunctional dihydrofolate reductase-thymidylate synthase of Trypanosoma brucei strain 427; N-terminal DHFR domain (ends at Arg 239), linker, C-terminal TS domain; also called TbDHFR-TS; cleaved TbDHFR-TS; not shown: Tsf (E. coli elongation factor Ts), N-terminal, cleaved; His6, internal (between Tsf and the TEV site), cleaved
stoichiometry N: 2
